From patent publication US20170128554A1 (NEW ENGLAND BIOLABS, published 2017) come the findings set out here.

Substitutions are numbered along the chain they refer to. Numbers in names are those of the source.

For assay [1], the target named is Sialylglycopeptide (SGP, Fushimi Pharmaceutical Co.). As to the kind of experiment: isothermal titration calorimetry, […] (2 M NaCl), […]. On the technique in general: In ITC the heat of successive injections is recorded.
The target is the same in assay [2]. Description: isothermal titration calorimetry, […] (50 mM NaCl), […].
The target of assay [3] is T1, SGP-TMR (sialylglycopeptide labeled with two tetramethylrhodamine fluorophores).
T1 construct: also called sialylated SGP
As to the kind of experiment: SGP-TMR pull-down on Fbs beads, low salt volatile buffer, fluorescence. Here is the method: SNAP-Fbs is efficiently conjugated to BG beads (SNAP Capture Pull-Down resin (New England Biolabs, Ipswich, Mass.): SNAP-Fbs protein is reacted with BG beads at 4° C. overnight in a DTT-containing buffer (4 mM DTT, 20 mM tris-HCl pH 7.5, 1 mM EDTA, 50 mM NaCl). After the conjugation reaction, SNAP-Fbs beads are washed with 40× bead volume of low salt buffer.
Fbs binding to complex N-glycan linked glycomolecules is substantially unbiased in a high salt buffer. SGP was labeled with two tetramethylrhodamine (TMR) fluorophores on the peptide portion via lysine residues according to the TMR protein labeling kit protocol (Genaxxon Bioscience, Ulm Germany). After TMR labeling, a fraction of the SGP-TMR sample was processed with neuraminidase (New England Biolabs, Ipswich, Mass.) to remove terminal sialic acid residues. Two binding conditions (LS, low salt buffer and HS, high salt buffer) were tested. […] TMR Fluorescence in the supernatant was measured using a SpectraMax M5 fluorometer (excitation 555 nm and emission 595 nm with 590 nm cutoff). Binding of SGP-TMR to Fbs (y-axis) is determined by subtracting the fluorescence measured in the bead supernatant from the input fluorescence.
SGP-TMR affinity to the Fbs in low salt volatile buffer was analyzed by a pull-down assay using SNAP Capture Pull-Down resin conjugated with equal amounts of WT, GYR or PPRYR Fbs proteins (FIG. 10B). […]

For orientation: Kd means the free concentration of one partner at which half of the binding sites on the other are occupied at equilibrium, for simple one-to-one binding. Low readings indicate tighter binding, high ones weaker binding.

B1: SNAP-Fbs (wild type Fbs sugar binding domain fused to SNAP-tag) (other)
chain: MGSSHHHHHHGDKDCEMKRTTLDSPLGKLELSGCEQGLHEIKLLGKGTSAADAVEVPAPAAVLGGPEPLMQATAWLNAYFHQPEAIEEFPVPALHHPVFQQESFTRQVLWKLLKVVKFGEVISYQQLAALAGNPAATAAVKTALSGNPVPILIPCHRVVSSSGAVGGYEGGLAVKEWLLAHEGHRLGKPGLGPAAIGAPGSGSGSPAGCQQEGLVPEGGVEEERDHWQQFYFLSKRRRNLLRNPCGEEDLEGWCDVEHGGDGWRVEELPGDSGVEFTHDESVKKYFASSFEWCRKAQVIDLQAEGYWEELLDTTQPAIVVKDWYSGRSDAGCLYELTVKLLSEHENVLAEFSSGQVAVPQDSDGGGWMEISHTFTDYGPGVRFVRFEHGGQDSVYWKGWFGARVTNSSVWVEP
notes: also called SNAP-wtFbs; wtFbs
Take B1: the Kd in assay [1] came to 1430 nM; in assay [2], 3000 nM.

B2: SNAP-tagged Fbs PPRYR mutant conjugated to BG beads (other)
chain: B1 chain with D271P, S272P, G273R, F290Y, E291R
Take B2: the “fold increased affinity, against WT Fbs” value in assay [3] worked out at 2 fold.

B3: SNAP-tagged Fbs GYR mutant conjugated to BG beads (other)
chain: B1 chain with S272G, F290Y, E291R
notes: also called S155G+YR
On to B3, for which the “fold increased affinity, against WT Fbs” value in assay [3] is 3 fold.
